The assay addresses T1, human Chi3l1 (chitinase 3-like-1) (human, UniProt P36222 22-383).
T1 construct: also called YKL-40; recombinant (r) human Chi3l1
Description: Western blot / ELISA detection of Chi3l1, denaturing and non-denaturing. In general terms: A western blot detects proteins with antibodies after separation by electrophoresis.

T1 sequence (P36222 22-383 limits assumed): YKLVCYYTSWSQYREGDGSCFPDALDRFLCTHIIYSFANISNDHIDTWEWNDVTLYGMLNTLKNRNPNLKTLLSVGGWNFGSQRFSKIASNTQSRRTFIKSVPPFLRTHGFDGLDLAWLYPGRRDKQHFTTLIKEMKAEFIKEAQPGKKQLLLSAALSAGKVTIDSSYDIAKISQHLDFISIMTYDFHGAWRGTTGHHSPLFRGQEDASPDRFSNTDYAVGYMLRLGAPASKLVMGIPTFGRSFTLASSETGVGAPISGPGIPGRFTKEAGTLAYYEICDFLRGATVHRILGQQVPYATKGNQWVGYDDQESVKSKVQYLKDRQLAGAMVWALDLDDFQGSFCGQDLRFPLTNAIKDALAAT

B1: FRG monoclonal antibody (anti-Chi3l1) (antibody, IgG2b, V domains shown)
VH: QIQLVQSGPELKKPGETVKISCKASGYTFTNYGMNWVKQAPGKGLKWMGWINTYTGEPTYADDFKGRFAFSLETSASTAYLQINNLRNEDMSTYFCARLGYGKFYVMDYWGQGTSVTVSS
VL: DVVMTQTPLSLPVSLGDQASISCRSSQSLVHSNGNTYLHWYLQKPGQSPKLLIYKVSNRFSGVPDRFSGSGSGTDFTLKISRVEAEDLGVYFCSQSTHVTWTFGGGTKLEIK
notes: The antibody is described as an IgG2b Kappa monoclonal; also called FRG mAb; FRG antibody
Take B1: the binding result is recorded as “binds”.
